For test [1], the target named is human TREM-1-Ligand (human). Nature of the test: flow cytometry on peripheral neutrophils of a sepsis patient, 1 µg huTREM-1/IgM.
Test [2] has as its target human TREM-1-Ligand (human). Nature of the test: flow cytometry on peripheral neutrophils of a sepsis patient, 0.2 µg huTREM-1/IgM. A general note: In flow cytometry, cells or beads pass a laser one at a time.
Test [3] addresses human TREM-1-Ligand (human). Nature of the test: flow cytometry, double staining with anti CD15, CD15 low neutrophils of a septic patient.
Test [4] has as its target human TREM-1-Ligand (human). The test can be described thus: flow cytometry, double staining with anti CD15, CD15 high neutrophils of a septic patient.
In test [5] the target is murine TREM-1-Ligand (mouse). Nature of the test: flow cytometry, low Ly-6G peritoneal cell subset, control mouse.
The target in test [6] is murine TREM-1-Ligand (mouse). Nature of the test: flow cytometry, peritoneal cells of a representative control mouse.
For test [7], the target named is murine TREM-1-Ligand (mouse). The test can be described thus: flow cytometry, low Ly-6G peritoneal cell subset, septic (CLP) mouse.
In test [8] the target is murine TREM-1-Ligand (mouse). The test can be described thus: flow cytometry, high Ly-6G peritoneal cell subset, septic (CLP) mouse.
Test [9] has as its target murine TREM-1-Ligand (mouse). Nature of the test: flow cytometry, peritoneal cells of a representative septic (CLP) mouse.
In test [10] the target is murine TREM-1-Ligand (mouse). Nature of the test: flow cytometry, tetramer staining of blood cells of septic mice 6 hours after CLP induction.

On to “human TREM-1-Receptor/human IgM fusion protein (from UniProt Q9NP99 21-200)”, for which the percent of cells stained positive amounted to 80% in test [1] and 45% in [2]. Also, the results for the percentage of TREM-1-Ligand expressing cells in test [3] and in [4] were 38% and 2%, respectively.
“murine TREM-1-Receptor/human IgG fusion protein (from UniProt Q9JKE2 21-202) (Fc fusion)”: the values for the frequency of double positive population in test [5], in test [7] and in [8] were 40%, 77% and 33%, respectively. Moreover, the frequency of Ly-6G positive, murine TREM-1-Receptor/IgG positive cells in test [6] was 8.8%; in [9], 35%. The percent of Ly-6G positive cells positive in [10] came to 2%.

The record behind these values is patent US20060183125A1.
